# Laboratory results as given in article PMC5430875.
# Target: cynomolgus monkey FcRn (cynomolgus monkey) (UniProt Q8SPV9)
# Experiment: SPR; Biacore T200, pH 6.0; antibody and FcRn; who was immobilised is not told (details in Supplementary Information)
# UniProt Q8SPV9, sequence (Q8SPV9 24-365): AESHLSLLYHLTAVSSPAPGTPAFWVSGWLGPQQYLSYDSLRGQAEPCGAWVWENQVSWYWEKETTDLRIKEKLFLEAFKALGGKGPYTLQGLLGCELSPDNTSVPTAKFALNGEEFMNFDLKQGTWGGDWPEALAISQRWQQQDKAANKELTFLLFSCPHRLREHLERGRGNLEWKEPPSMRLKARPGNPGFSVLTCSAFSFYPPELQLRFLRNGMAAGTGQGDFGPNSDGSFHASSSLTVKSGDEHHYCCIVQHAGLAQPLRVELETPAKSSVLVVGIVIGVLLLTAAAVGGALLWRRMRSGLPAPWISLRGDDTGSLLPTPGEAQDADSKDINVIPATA
substance,measurement,value
trastuzumab (antibody),Kd,1980 nM
